The target of this assay is LFA1 receptor on T cells (human) (UniProt P20701). Description: cell-based or functional assay.
Sequence of UniProt P20701 (P20701 26-1170, chain 1 of 2): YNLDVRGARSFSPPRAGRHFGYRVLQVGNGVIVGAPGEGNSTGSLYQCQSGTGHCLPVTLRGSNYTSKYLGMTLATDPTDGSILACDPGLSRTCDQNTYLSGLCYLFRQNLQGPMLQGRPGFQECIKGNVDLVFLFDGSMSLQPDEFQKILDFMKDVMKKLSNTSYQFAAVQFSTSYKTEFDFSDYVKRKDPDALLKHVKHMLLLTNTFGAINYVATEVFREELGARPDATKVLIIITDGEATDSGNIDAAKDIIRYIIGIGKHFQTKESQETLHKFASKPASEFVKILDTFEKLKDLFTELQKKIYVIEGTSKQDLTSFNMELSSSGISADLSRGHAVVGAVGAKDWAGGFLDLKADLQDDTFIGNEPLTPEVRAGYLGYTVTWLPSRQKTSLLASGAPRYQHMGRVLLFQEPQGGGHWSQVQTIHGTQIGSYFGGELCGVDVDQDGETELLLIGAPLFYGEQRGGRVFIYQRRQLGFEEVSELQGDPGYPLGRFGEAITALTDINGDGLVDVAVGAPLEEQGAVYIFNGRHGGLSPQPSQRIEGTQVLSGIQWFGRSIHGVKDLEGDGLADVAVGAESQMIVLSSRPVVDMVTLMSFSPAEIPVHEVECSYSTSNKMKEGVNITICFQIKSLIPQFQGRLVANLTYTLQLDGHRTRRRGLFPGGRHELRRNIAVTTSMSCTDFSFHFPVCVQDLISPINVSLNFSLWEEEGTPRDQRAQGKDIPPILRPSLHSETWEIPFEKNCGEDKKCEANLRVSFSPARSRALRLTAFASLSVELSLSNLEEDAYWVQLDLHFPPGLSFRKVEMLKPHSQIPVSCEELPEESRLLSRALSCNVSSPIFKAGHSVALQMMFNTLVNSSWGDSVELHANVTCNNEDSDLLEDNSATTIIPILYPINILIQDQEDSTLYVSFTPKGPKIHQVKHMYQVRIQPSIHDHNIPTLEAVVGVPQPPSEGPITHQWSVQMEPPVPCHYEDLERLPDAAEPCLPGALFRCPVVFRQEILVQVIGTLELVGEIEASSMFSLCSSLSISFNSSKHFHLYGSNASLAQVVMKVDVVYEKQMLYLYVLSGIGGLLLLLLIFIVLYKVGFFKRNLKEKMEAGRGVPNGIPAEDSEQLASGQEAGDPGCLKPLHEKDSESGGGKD
Sequence of UniProt P20701 (P05107 23-769, chain 2 of 2, further chain): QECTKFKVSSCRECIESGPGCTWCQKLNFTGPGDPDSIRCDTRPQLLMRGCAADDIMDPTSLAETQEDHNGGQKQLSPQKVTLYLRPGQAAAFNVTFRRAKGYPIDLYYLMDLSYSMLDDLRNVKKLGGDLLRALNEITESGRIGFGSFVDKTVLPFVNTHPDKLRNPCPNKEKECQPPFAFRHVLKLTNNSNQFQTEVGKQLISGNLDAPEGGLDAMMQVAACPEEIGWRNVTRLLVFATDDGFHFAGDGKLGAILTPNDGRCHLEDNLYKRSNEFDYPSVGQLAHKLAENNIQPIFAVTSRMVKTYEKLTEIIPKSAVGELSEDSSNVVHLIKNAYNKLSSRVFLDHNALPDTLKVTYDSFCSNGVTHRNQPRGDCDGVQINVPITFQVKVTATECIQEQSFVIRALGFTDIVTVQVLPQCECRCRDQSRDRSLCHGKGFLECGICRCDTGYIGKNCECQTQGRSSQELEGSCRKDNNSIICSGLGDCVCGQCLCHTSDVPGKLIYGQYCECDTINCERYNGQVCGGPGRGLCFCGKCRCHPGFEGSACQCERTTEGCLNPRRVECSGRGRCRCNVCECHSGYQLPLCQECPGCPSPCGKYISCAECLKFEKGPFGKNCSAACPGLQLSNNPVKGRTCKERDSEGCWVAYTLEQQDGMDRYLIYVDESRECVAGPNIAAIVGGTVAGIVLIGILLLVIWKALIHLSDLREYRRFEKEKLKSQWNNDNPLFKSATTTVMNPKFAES

For anti-LFA1 (TS1/18) monoclonal antibody, the IFN-γ secretion (ELISA) by CD4+ T cells stimulated with IL12, IL18 and TL1A after pretreatment with LFA1 blocking antibody, compared to IgG control antibody was 43 % reduction.

Source of the values: patent US12618111.
